Substrate: O=c1c(-c2ccc(O)cc2)coc2cc(O)cc(O)c12
Test: 3H-genistein uptake into yeast microsomal vesicles, rapid filtration, Hanes-Woolf plot
Assay type: biochemical, Lupinus albus
Details: labelled compound, 5 mM ATP, 10 mM MgCl2, 0.1 M KCl, pH 7.4, 30 s, empty-vector uptake subtracted, proton-driven
From the text: 3H-genistein uptake into yeast microsomal vesicles, rapid filtration, Hanes-Woolf plot on LaMATE2 | LaMATE2 mediates an efficient transport of genistein which was characterized by a saturable kinetic

B1: LaMATE2 (Lupinus albus) (protein)
chain: MEESLIPKQVEQKTERYNEEKQKHKVTWNSFSEEMKRICVVAGPMVIVISSQYLLQVVSTMMVGHLGELYLSSAALAISLSSVTGFSLIMGMASGLETICGQAFGGKQYKRIGTQTYTAILSLTLVSFVLSLLWINMERILVFIGQDPLIAHESGKFIIWLIPALFAYAIMQPLVRYFQMQSLLFPMLISSLVALCIHIPLCWALVYKTRLHNVGGALALGISNWSNVIFLALYMRYSSACAKTRAPISMELFHGIWEFFRFAVPSALMICLEWWSFELLVLLSGLLPNPQLETSVLSVCLNTISTLYTIPFGIGAAASTRVSNELGAGNPHTARIAVLAAMSLAVLETCVVTGTLFACRHIFGYIFSNEKEVVDYVTLMAPLVCISVILDSLQGVLTGIARGCGWQHLGVYVNLGAFYLLGIPAAATLAFWFKLRGKGLWIGIQVGSFVQTLLLSIITSGINWEQQANKAKYRLLEDESSAENSLA
notes: full ORF in pNEV, no tag stated; expressed in Saccharomyces cerevisiae YPH499, microsomal membrane vesicles; 12 predicted transmembrane helices
- Km: 16.2 µM

Reference: paper PMC8570342, “Identification of an Isoflavonoid Transporter Required for the Nodule Establishment of the Rhizobium-Fabaceae Symbiotic Interaction” (Frontiers in Plant Science, 2021)
